Data taken from paper PMC2810249.
Square brackets hold non-standard residues; d marks the D form. pY = N[C@@H](Cc1ccc(OP(=O)(O)O)cc1)C(=O)O

What was measured:
Experiment in all cases: NMR titration
[1] = biological target: Itk SH3 domain (wild type)
Itk SH3(E189Q) domain = biological target: Itk SH3(E189Q) domain
Itk SH3(E189K) domain = biological target: Itk SH3(E189K) domain
Itk SH3(Y180E) domain = biological target: Itk SH3(Y180E) domain
Itk SH2(I282A) domain = biological target: Itk SH2(I282A) domain

Molecule: Itk SH2 domain (wild type) (domain or fragment)
- Kd [1]: 0.67 mM
- Kd (Itk SH3(E189Q) domain): 2.05 mM

Molecule: Itk SH2(R332A) domain (domain or fragment)
- Kd [1]: 1.8 mM

Molecule: Itk SH2(K309E) domain (domain or fragment)
- Kd [1]: 1.85 mM
- Kd (Itk SH3(E189K) domain): 1.08 mM

Molecule: Itk SH2(K280A) domain (domain or fragment)
- fold drop in affinity against SH3(Y180E)/wild type SH2 (Itk SH3(Y180E) domain): 10 fold

B1: phosphopeptide derived from Slp76 (Ac-ADpYEPP-NH2) (peptide)
peptide: Ac-AD[pY]EPP-NH2
SMILES: CC(=O)N[C@@H](C)C(=O)N[C@@H](CC(=O)O)C(=O)N[C@@H](Cc1ccc(OP(=O)(O)O)cc1)C(=O)N[C@@H](CCC(=O)O)C(=O)N1CCC[C@H]1C(=O)N1CCC[C@H]1C(N)=O
- Kd (Itk SH2(I282A) domain): 1 mM
